Results taken from patent US9724381B2 (THE ADMINISTRATORS OF THE TULANE EDUCATIONAL FUND, priority 2009, dated 2017).
Where no end group is shown, it is not given here. [ ]: non-standard residue; d: D form. The star is where a group is joined. d2Nal = N[C@H](Cc1ccc2ccccc2c1)C(=O)O; dCha = N[C@H](CC1CCCCC1)C(=O)O; Picolinoyl = O=C(c1ccccn1)*; Nle = CCCC[C@H](N)C(=O)O; Dab = NCC[C@H](N)C(=O)O; dPal = not defined here; βAla = NCCC(=O)O; iPr = CC(C)*

What was measured:
[1] = biological target: T1, Ghrelin/GHRP/GHS Receptor (Rattus norvegicus, UniProt O08725); test: In vitro GH release from cell culture of pituitary cells; format: cell-based; set-up: After dispersion, the cells were collected by centrifugation, wash with DMEM and placed into culture well; endogenous in cells; host or cells: dispersed primary rat anterior pituitary cells; details: Table 8
Procedure: In vitro GH Release-Female rats of the CD-1 strain were housed in a constant temperature room at 24° C. with 14 h light and 10 h darkness. The rats were fed Purina Rat chow and water at libitum. All studies were started between 0800-1000 hours. Pituitaries of mature female Sprague Dawley rats were rapidly removed after decapitation, neurointermediate lobe discarded and then placed in a pH 7.4 buffer. The pituitaries were cut into ˜3-mm pieces and then transferred to a flask containing HEPS buffer with trypsin and incubated at 37° C. Cells were triturated several times during this period. After dispersion, the cells were collected by centrifugation, wash with DMEM and placed into culture well. Cell cultures were maintained for 4 days at 37° with 8% CO2 added to the incubator atmosphere. After 4 days in culture, cells were washed with lactated Ringer's solution adjusted to pH 7.2-7.4 and then vehicle, peptide alone or peptide plus stimulator was added to media. Incubation time was 60-120 minutes after which media was removed from each well for GH determination. The GH RIA reagents were distributed by the NIH. Control data was collected from cell cultures treated with only the corresponding vehicle in the absence of peptide or stimulator. Control stimulated data was collected from cell cultures treated with stimulator alone in the absence of any peptide.

[2] = biological target: T1, Ghrelin/GHRP/GHS Receptor; test: In vivo GH release in rat (serum GH by RIA after i.v. peptide); details: for Unstimulated Basal GH release from rats: Table 5; for Unstimulated Basal GH Release from rat: Table 3
Procedure: For the in vivo assay of GH Release in rat, immature female Sprague Dawley rats were obtained from Charles River from Wilmington, Mass. After arrival they were housed at 25° C. with a 14:10 h light:dark cycle. Water and Purina rat chow were available at libitum. Pups were weaned at 21 days of age.
Immature twenty six day old female Sprague Dawley rats, 3-6 rats per treatment dose, were pretreated with pentobarbital 20 minutes before iv injection of vehicle/peptide or peptide plus stimulator. Injection was made as a 0.1 ml solution. For the non-pentobarbital treated rat assay, peptides were administered iv into the tail vein of conscious rats. All animals were sacrificed by guillotine after iv peptide or vehicle. Trunk blood was collected at +10-15 minutes […], allowed to clot, centrifuged and serum stored until assayed for GH levels by RIA. The GH RIA reagents were distributed by the NIH. Control data was collected from rats treated with only the corresponding vehicle in the absence of peptide or stimulator. Control stimulated data was collected from rats treated with stimulator alone in the absence of any peptide.

[3] = peptide antagonist dosage 3 (head prints μg/i.v.)
[4] = peptide antagonist dosage 10 (head prints μg/i.v.)
[5] = peptide antagonist dosage 30 (head prints μg/i.v.)
[6] = peptide antagonist dosage 100 (head prints μg/i.v.)
[7] = peptide antagonist dosage 1 (head prints μg/i.v.)
[8] = peptide antagonist alone 1 μg i.v.
[9] = peptide antagonist alone 10 μg i.v.
[10] = peptide antagonist alone 30 μg i.v.

T1 sequence (O08725 whole entry): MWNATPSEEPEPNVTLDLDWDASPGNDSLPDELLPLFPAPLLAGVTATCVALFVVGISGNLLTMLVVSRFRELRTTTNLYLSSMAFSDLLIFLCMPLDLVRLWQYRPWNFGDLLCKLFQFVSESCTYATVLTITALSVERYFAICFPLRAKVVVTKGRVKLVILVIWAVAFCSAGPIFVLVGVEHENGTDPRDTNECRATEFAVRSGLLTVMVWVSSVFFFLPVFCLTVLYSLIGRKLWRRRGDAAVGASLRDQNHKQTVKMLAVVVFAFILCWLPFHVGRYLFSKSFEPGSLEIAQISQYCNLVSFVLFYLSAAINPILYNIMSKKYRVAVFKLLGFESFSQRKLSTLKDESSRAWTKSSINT

Substance | Unstimulated Basal GH release from cell cultures of pituitary cells [1, 3] | Unstimulated Basal GH release from cell cultures of pituitary cells [1, 4] | Unstimulated Basal GH release from cell cultures of pituitary cells [1, 5] | other results
Ac-DLys-Tyr-DTrp-DTrp-Phe-NH2 (Ac-[dK]Y[dW][dW]F-NH2; SMILES CC(=O)N[C@H](CCCCN)C(=O)N[C@@H](Cc1ccc(O)cc1)C(=O)N[C@H](Cc1c[nH]c2ccccc12)C(=O)N[C@H](Cc1c[nH]c2ccccc12)C(=O)N[C@@H](Cc1ccccc1)C(N)=O) | 105 ± 8 ng/mL | 950 ± 91 ng/mL | 782 ± 56 ng/mL | Unstimulated Basal GH release from cell cultures of pituitary cells [1, 6]: 756 ± 1 ng/mL
Ac-DβNal-DTrp-NH2 | 1264 ± 2 ng/mL | 980 ± 72 ng/mL | 699 ± 7 ng/mL | 
Ac-DβNal-PicLys-ILys-DPhe-NH2 (Ac-[d2Nal]K(Picolinoyl)K(iPr)[dF]-NH2; SMILES CC(=O)N[C@H](Cc1ccc2ccccc2c1)C(=O)N[C@@H](CCCCNC(=O)c1ccccn1)C(=O)N[C@@H](CCCCNC(C)C)C(=O)N[C@H](Cc1ccccc1)C(N)=O) [Ac-DβNal-PlcLys-ILys-DPhe-NH2] | 1013 ± 207 ng/mL | 976 ± 13 ng/mL | 928 ± 16 ng/mL | 
Arg-DTrp-Leu-Tyr-Trp-Pro(cyclic Arg-Pro) | 1480 ± 19 ng/mL | 802 ± 26 ng/mL | 601 ± 16 ng/mL | Unstimulated Basal GH release from cell cultures of pituitary cells [1, 6]: 509 ± 49 ng/mL
DAla-DcyclohexylAla-Ala-Ala-Phe-DPhe-Nle-NH2 ([dA][dCha]AAF[dF][Nle]-NH2; N-terminus assumed; SMILES CCCC[C@H](NC(=O)[C@@H](Cc1ccccc1)NC(=O)[C@H](Cc1ccccc1)NC(=O)[C@H](C)NC(=O)[C@H](C)NC(=O)[C@@H](CC1CCCCC1)NC(=O)[C@@H](C)N)C(N)=O) | 177 ± 44 ng/mL | 271 ± 38 ng/mL | 376 ± 28 ng/mL | Unstimulated Basal GH release from cell cultures of pituitary cells [1, 7]: 286 ± 75 ng/mL
DLys-Tyr-DTrp-DTrp-Phe-NH2 ([dK]Y[dW][dW]F-NH2; N-terminus assumed; SMILES NCCCC[C@@H](N)C(=O)N[C@@H](Cc1ccc(O)cc1)C(=O)N[C@H](Cc1c[nH]c2ccccc12)C(=O)N[C@H](Cc1c[nH]c2ccccc12)C(=O)N[C@@H](Cc1ccccc1)C(N)=O) | 1175 ± 77 ng/mL | 1129 ± 6 ng/mL | 744 ± 44 ng/mL | Unstimulated Basal GH release from cell cultures of pituitary cells [1, 7]: 1451 ± 19 ng/mL
DPal-Phe-DTrp-Phe-Met-NH2 ([dPal]F[dW]FM-NH2; reading uncertain; also: printed as DPal-Phe-DTrp-Phe-Met-NH2) | 1081 ± 50 ng/mL | 997 ± 30 ng/mL | 425 ± 25 ng/mL | 
DPal-Trp-DPhe-Phe-Met-NH2 ([dPal]W[dF]FM-NH2; reading uncertain; also: printed as DPal-Trp-DPhe-Phe-Met-NH2) | 1105 ± 18 ng/mL | 891 ± 4 ng/mL | 567 ± 24 ng/mL | 
DPhe-Ala-Phe-DPal-NH2 ([dF]AF[dPal]-NH2; reading uncertain; also: printed as DPhe-Ala-Phe-DPal-NH2) | 170 ± 19 ng/mL | 181 ± 31 ng/mL | 161 ± 20 ng/mL | Unstimulated Basal GH release from cell cultures of pituitary cells [1, 6]: 146 ± 21 ng/mL
DPhe-Ala-Phe-DPhe-Lys-NH2 ([dF]AF[dF]K-NH2; N-terminus assumed; SMILES C[C@H](NC(=O)[C@H](N)Cc1ccccc1)C(=O)N[C@@H](Cc1ccccc1)C(=O)N[C@H](Cc1ccccc1)C(=O)N[C@@H](CCCCN)C(N)=O) |  | 267 ± 27 ng/mL | 276 ± 65 ng/mL | Unstimulated Basal GH release from cell cultures of pituitary cells [1, 6]: 360 ± 84 ng/mL
DPhe-Trp-DPhe-Phe-Met-NH2 ([dF]W[dF]FM-NH2; N-terminus assumed; SMILES CSCC[C@H](NC(=O)[C@H](Cc1ccccc1)NC(=O)[C@@H](Cc1ccccc1)NC(=O)[C@H](Cc1c[nH]c2ccccc12)NC(=O)[C@H](N)Cc1ccccc1)C(N)=O) | 1146 ± 34 ng/mL | 1086 ± 32 ng/mL | 871 ± 89 ng/mL | 
His-DTrp-DTrp-Lys-NH2 (H[dW][dW]K-NH2; N-terminus assumed; SMILES NCCCC[C@H](NC(=O)[C@@H](Cc1c[nH]c2ccccc12)NC(=O)[C@@H](Cc1c[nH]c2ccccc12)NC(=O)[C@@H](N)Cc1c[nH]cn1)C(N)=O) | 1124 ± 37 ng/mL | 749 ± 10 ng/mL | 615 ± 41 ng/mL | 
αγAbu-DTrp-DTrp-Lys-NH2 ([Dab][dW][dW]K-NH2; N-terminus assumed; SMILES NCCCC[C@H](NC(=O)[C@@H](Cc1c[nH]c2ccccc12)NC(=O)[C@@H](Cc1c[nH]c2ccccc12)NC(=O)[C@@H](N)CCN)C(N)=O) |  |  |  | Unstimulated Basal GH release from rats [2, 8]: 57 ± 7 ng/mL; Unstimulated Basal GH release from rats ([2]; peptide antagonist alone 3 μg i.v.): 84 ± 18 ng/mL; Unstimulated Basal GH release from rats [2, 9]: 62 ± 15 ng/mL
αγAbu-DTrp-DTrp-Orn-NH2 |  |  |  | Unstimulated Basal GH release from rats [2, 8]: 118 ± 16 ng/mL; Unstimulated Basal GH release from rats [2, 9]: 126 ± 27 ng/mL; Unstimulated Basal GH release from rats [2, 10]: 79 ± 31 ng/mL
αγAbu-DTrp-DTrp-Ser-NH2 ([Dab][dW][dW]S-NH2; N-terminus assumed; SMILES NCC[C@H](N)C(=O)N[C@H](Cc1c[nH]c2ccccc12)C(=O)N[C@H](Cc1c[nH]c2ccccc12)C(=O)N[C@@H](CO)C(N)=O) |  |  |  | Unstimulated Basal GH release from rats [2, 8]: 80 ± 35 ng/mL; Unstimulated Basal GH release from rats [2, 9]: 62 ± 15 ng/mL; Unstimulated Basal GH release from rats [2, 10]: 67 ± 8 ng/mL
βAla-Trp-DAla-DTrp-Phe-NH2 ([βAla]W[dA][dW]F-NH2; N-terminus assumed; SMILES C[C@@H](NC(=O)[C@H](Cc1c[nH]c2ccccc12)NC(=O)CCN)C(=O)N[C@H](Cc1c[nH]c2ccccc12)C(=O)N[C@@H](Cc1ccccc1)C(N)=O) |  |  |  | Unstimulated Basal GH Release from rat ([2]; peptide alone 30 μg i.v.): 341 ± 46 ng/mL; Unstimulated Basal GH Release from rat ([2]; peptide alone 100 μg i.v.): 636 ± 171 ng/mL
